Source: patent US20180057604A1

How the values were obtained:
[1] = molecular target: cyno TfR extracellular domain (analogous construct to human TfR ecd) (cynomolgus monkey); assay: SPR, bispecific antibody
[2] = molecular target: human TfR extracellular domain with N-terminal His tag (human) (UniProt P02786); assay: SPR, bispecific antibody
Chain of human TfR extracellular domain with N-terminal His tag (human) (P02786 89-760 G142S): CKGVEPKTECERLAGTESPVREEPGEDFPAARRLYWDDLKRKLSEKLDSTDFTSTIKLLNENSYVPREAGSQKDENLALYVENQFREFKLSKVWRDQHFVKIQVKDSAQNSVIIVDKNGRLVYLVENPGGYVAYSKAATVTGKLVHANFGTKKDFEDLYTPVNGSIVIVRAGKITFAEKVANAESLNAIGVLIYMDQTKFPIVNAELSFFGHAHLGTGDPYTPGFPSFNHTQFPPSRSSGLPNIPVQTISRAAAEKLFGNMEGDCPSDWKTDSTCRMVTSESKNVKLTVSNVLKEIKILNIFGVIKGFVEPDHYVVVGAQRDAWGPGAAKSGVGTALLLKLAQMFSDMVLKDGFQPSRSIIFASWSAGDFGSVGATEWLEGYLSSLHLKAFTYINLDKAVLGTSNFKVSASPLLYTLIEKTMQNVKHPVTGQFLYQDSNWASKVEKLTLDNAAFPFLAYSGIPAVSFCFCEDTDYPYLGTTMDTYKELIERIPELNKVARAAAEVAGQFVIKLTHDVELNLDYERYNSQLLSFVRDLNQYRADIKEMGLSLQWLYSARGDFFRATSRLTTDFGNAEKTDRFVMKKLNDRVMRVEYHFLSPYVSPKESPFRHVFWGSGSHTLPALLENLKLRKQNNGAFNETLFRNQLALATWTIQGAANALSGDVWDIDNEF

Chain of cyno TfR extracellular domain (analogous construct to human TfR ecd) (cynomolgus monkey) (Q5RDH6 other isoform, or with tags, fused parts or gaps): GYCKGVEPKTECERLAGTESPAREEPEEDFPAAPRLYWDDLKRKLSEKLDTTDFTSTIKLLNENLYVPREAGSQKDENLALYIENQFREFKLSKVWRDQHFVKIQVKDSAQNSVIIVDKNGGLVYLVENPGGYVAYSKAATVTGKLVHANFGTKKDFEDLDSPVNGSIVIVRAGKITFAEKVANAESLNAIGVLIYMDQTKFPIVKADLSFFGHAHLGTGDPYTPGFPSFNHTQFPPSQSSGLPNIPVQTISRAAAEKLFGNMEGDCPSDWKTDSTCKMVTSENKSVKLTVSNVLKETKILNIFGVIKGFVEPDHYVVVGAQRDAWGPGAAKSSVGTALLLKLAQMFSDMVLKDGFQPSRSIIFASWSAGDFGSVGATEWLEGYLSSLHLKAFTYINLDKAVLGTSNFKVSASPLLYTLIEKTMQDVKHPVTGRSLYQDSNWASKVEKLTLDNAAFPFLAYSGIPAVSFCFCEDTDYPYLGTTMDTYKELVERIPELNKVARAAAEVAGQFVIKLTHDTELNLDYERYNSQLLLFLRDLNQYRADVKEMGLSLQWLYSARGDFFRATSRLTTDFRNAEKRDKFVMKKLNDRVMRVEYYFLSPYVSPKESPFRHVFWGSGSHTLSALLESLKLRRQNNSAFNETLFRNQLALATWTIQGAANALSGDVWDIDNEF

Kd [1]: 143 nM | Kd [2]: 24 nM
B1: anti-TfR^53A/BACE1 bispecific antibody (15G11.T53A arm) (bispecific antibody, part only; not given: anti-BACE1 arm and constant regions, V domains shown, not shown: another chain or arm of the molecule; a dimerising Fc or GST; small tags and cut ends)
VH: EVQLVQSGAEVKKPGASVKVSCKASGYTFTSYWMHWVRQAPGQRLEWIGEINPANGRTNYIEKFKSRATLTVDKSASTAYMELSSLRSEDTAVYYCARGTRAYHYWGQGTMVTVSS
VL: DIQMTQSPSSLSASVGDRVTITCRASDNLYSNLAWYQQKPGKSPKLLVYDATNLADGVPSRFSGSGSGTDYTLTISSLQPEDFATYYCQHFWGTPLTFGQGTKVEIK
